From publication PMC10487846

Tests used:
[1] = target: recombinant wild type (wt) XptA2 (Xenorhabdus nematophilus); assay: cryo-EM structure; single-particle cryo-EM of wt XptA2, pre-pore state; first map 7.2 Å, final map 3.1 Å (3.02 Å in the methods); 10 mM Tris, 100 mM NaCl, pH 7.5; C5 symmetry
[2] = target: seleno-methionine (SeMet) labeled XptA2 (Xenorhabdus nematophilus); assay: crystal structure; SeMet XptA2 crystals grown in 0.1 M HEPES pH 7.5, 0.2 M NaCl, 16-20% PEG-3000; MR-SAD phasing with the 7 Å cryo-EM map; 3.1 Å; pre-pore state

| Substance | stoichiometry N [1] | stoichiometry N [2] |
| --- | --- | --- |
| recombinant wild type (wt) XptA2 | 5 |  |
| seleno-methionine (SeMet) labeled XptA2 |  | 5 |
